Experimental data from PMC12434308 (Nature chemical biology, 2021).
“And” between values parts separate entries of the source, which are not always exact repeats. Equal entries are not always repeated.

Target: SARS-CoV-2 S protein (SARS-CoV-2) (UniProt P0DTC2)
Assay: native MS

SARS-CoV-2 S protein (from UniProt P0DTC2) (natural protein)
stoichiometry N: 2 and 6
